In publication PMC3677378:

Columns and labels:
[1] = biological target: E. coli ribosomal post-peptide-release complex (RC; 70S, tRNA^fMet and [Met, stop]-mRNA) (E. coli) (UniProt P0AG67); assay: co-sedimentation; as a1 but with extra GDP titrated in, up to 200 μM extra GDP; ultracentrifugation on sucrose cushion, SDS-PAGE
[2] = biological target: E. coli ribosomal post-peptide-release complex (RC; 70S, tRNA^fMet and [Met, stop]-mRNA) (E. coli) (UniProt P0AG67); assay: co-sedimentation; RC or naked 70S (ribosomes 0.5 µM) with RF1 (2 µM) and RF3 (6 µM), 1xHEPES-polymix buffer, 37°C 10 min, no extra added GDP; ultracentrifugation on 30% sucrose cushion, SDS-PAGE, band intensities compared with ribosomal protein S1

- stoichiometry N (RF1 per S1 (band intensity)) [1]: 1
- stoichiometry N (RF1 per S1 (band intensity)) [2]: 1
Substance: release factor 1 (RF1), wild type (from UniProt P0A7I0 1-360) (natural protein)
